Data on 3 molecules can be found in US20240091375A1, “AN ANTIBODY FRAGMENT BASED ANTIMICROBIAL CONJUGATE SELECTIVELY TARGETING PSEUDOMONAS” (priority 2020, published 2024).

In data set [1] the test system is P. aeruginosa. Nature of the data set: Kill kinetics by ATP measurement (bacterial live dead assay). As to conditions: ATP at different time points, FIG. 7; Histatin 5 and Seq. ID 21 compared with each other. It counts as cell-based, Pseudomonas aeruginosa. From the text: FIG. 7 is a representative graph showing the kill kinetics of Seq. ID 21, Seq. ID 6, on P. aeruginosa with Histatin 5, positive control—Meropenem, and negative controls—media and culture.
Kill kinetics was done by measuring the adenosine triphosphate (ATP) during different time points using the bacterial live dead assay. […] ID 21 was similar showing bactericidal activity was due to the released Histatin on contact with the Pseudomonas. A positive control used was antibacterial Meropenem drug to show the efficiency of killing. […] The VHH antibody Seq.

In data set [2] the test system is Pseudomonas aeruginosa. Nature of the data set: Microbiological agar-plate assay for bactericidal activity (MIC-99, MIC-50). Type of data set: cell-based. As to conditions: for MIC-50 (minimal inhibitory concentration for killing 50% microorganisms) / MIC-99 (minimal inhibitory concentration for killing 99% microorganisms): in vitro, agar-plate assay; for MIC-99 (minimal inhibitory concentration for killing 99% microorganisms): FIG. 5, Seq. ID6 value printed with 'anaerobic conditions'. The protocol:
FIG. 5 is representative microbiological agar-plate assay to determine MIC-99 of purified Seq. ID 21, and Seq. ID 6;
Microbiology assays were done with the purified VHH with Seq. ID 6 and the antibody fragment based antimicrobial conjugate of Seq. ID 21 to see their bactericidal activity. As depicted in FIG. 5, the MIC-99 of the Seq. […] ID21 with a value less than 0.5 μM. The MIC-50 of Seq. ID 6 antibody fragment alone was less than 2.5 μM and that of Seq. ID 21 was less than 0.125 μM.

Data set [3] concerns whole cell Pseudomonas spp. Nature of the data set: Whole cell ELISA binding. The settings on record: FIG. 6a. From the text: FIG. 6a is a representative graph depicting the binding affinity of Seq. ID21 and Seq. ID 6 to whole cell Pseudomonas spp. in an ELISA assay;
Whole cell ELISA using Pseudomonas spp. were used to determine the binding properties of the conjugate with Seq. ID 21, and VHH Seq. ID 6. […] ID 21. Both the molecules Seq. ID 21 and Seq.
Background: ELISA stands for enzyme-linked immunosorbent assay.

Data set [4] has as its system P. aeruginosa. Nature of the data set: Turbidity test of P. aeruginosa culture. Type of data set: cell-based, Pseudomonas aeruginosa. As to conditions: treated versus untreated control, visual, FIG. 4b. Here is the method: FIG. 4b is a representative image of turbidity test of P. aeruginosa culture in the presence (Treated) and the absence (Control) of purified Seq. ID 21;
FIG. 4b represents a turbidity test, wherein sample of the pathogen P. aeruginosa was either left untreated (Control) or was treated by addition of purified Seq. ID 21 (Treated) prodrug.

Consider Histatin 5 [reference compound], for which the “Bactericidal activity in kill kinetics” value in data set [1] is listed as “similar”.

B1: Seq. ID 21: 187 amino acid conjugate: human Histatin 5, Elastase B cleavage sequence RGGGLA, Gly-Ser linker, VHH Seq. ID6 (conjugate)
chain: MGDSHAKRHHGYKRKFHEKHHSHRGYDVRGGGLAGGGGSGGGGSGGGGSHMDVQLQESGGASVQPGGSLLISCEASGLASYSNYCIMWFRQPPGKEREGVAGINLRSGITYYAEAVRPRFTISADSVDGRFAISQDNARNTVYLQMNSLKPEDTAIYYCAAGNLCGGSWSGYRYWGQGTQVTVSSLE
modifications: Antibody fragment based antimicrobial conjugate
notes: ID6
In the case of B1, the “Reduction of MIC-99 relative to Seq. ID6 antibody fragment alone” value in data set [2] (conjugate versus VHH alone) turned out to be 20 fold. Also, in data set [2], the “MIC-50 (minimal inhibitory concentration for killing 50% microorganisms)” value is reported as “less than 0.125 μM” and the “MIC-99 (minimal inhibitory concentration for killing 99% microorganisms)” value was “less than 0.5 μM”. For the same molecule, the “Binding ability to whole cell Pseudomonas spp. after conversion of the antibody to conjugate” value in data set [3] (ELISA) is recorded as “no loss of binding ability”. Besides, in data set [3], the Biological activity entry is “showed the desired biological activity”. Also, in data set [1], the “Bactericidal activity in kill kinetics” value is listed as “similar”. In data set [4], the “Turbidity of P. aeruginosa sample after treatment” value is “visually reduced”.

B2: Seq. ID 6: camelid heavy chain antibody variable region fragment (VHH) specific to Pseudomonas aeruginosa antigen C4 decarboxylase transporter (protein, listed as Camelus dromedarius)
VHH: DVQLQESGGASVQPGGSLLISCEASGLASYSNYCIMWFRQPPGKEREGVAGINLRSGITYYAEAVRPRFTISADSVDGRFAISQDNARNTVYLQMNSLKPEDTAIYYCAAGNLCGGSWSGYRYWGQGTQVTVSS
For B2, in data set [2], the “MIC-50 (minimal inhibitory concentration for killing 50% microorganisms)” value is “less than 2.5 μM” and the “MIC-99 (minimal inhibitory concentration for killing 99% microorganisms)” value was 10 µM. For the same molecule, the Biological activity result in data set [3] was “showed the desired biological activity”.
